# Experimental data: IntAct's records for PubMed 16824542
# B1: SH2B adapter protein 2 (Rattus norvegicus (Rat)), Q9Z200 (parent)
# chain: MNGATPGSAAAPAPVPDWRQFCELHAQVAAVDFAHKFCRFLRDNPTYDTPDAGTSFSRHFAANFLAVFSEEVRRVLGTAADTMEPEPAVTSVTSALKTATYGHSRSSEDVSAHVATKARVRKGFSLRNMSLCVVDGVRDLWHRRASPEPEGGATPKTTEPVSEPRDKWTRRLRLARTLAAKVELVDIQREGALRFMVADDAASGPGGTAQWQKCRLLLRRAVAGERFRLEFFVPPKASRPKVSIPLSAIIEVRTTMPLEMPEKDNTFVLKVENGAEYILETIDSLQKHSWVADIQGCVDPGDSEEDTGLSCARGGCLASRVTSCSCELLTEADMPRPPETMTAVGAVVTAPHGRARDTVGESLAHVPLETFLQTLESSGGVSESNNTGDEGAELDPDAEAELELSDYPWFHGTLSRVKAAQLVLAGGPRSHGLFVIRQSETRPGECVLTFNFQGKAKHLRLSLNGHGQCHVQHLWFQSVFDMLRHFHTHPIPLESGGSADITLRSYVRAQGPPPDPGPAPNTAAPVPACWTEPAGQHYFSSLATATCPPTSPSNGAGASSSSGSSSSATSVPPRPAEGPLSARSRSNSTEHLLEAASGATEEPADATLGRARAVENQYSFY
# Variants of: B1
# Settings: with insr_human INSR
row,effect of a mutation on the interaction,Variant
1,decreasing interaction,W475H
2,disrupting interaction,R460A
3,decreasing interaction,R442A
